In patent publication US20210388040A1:

Assays:
SMARCE1 (human) [1] = target: SMARCE1 (human) (UniProt Q969G3); test: HA-bait purification from HEK-293T nuclear extract, glycerol gradient fractions 13-14, mass spectrometry, peptide count
SMARCA4 (human) [2] = target: SMARCA4 (human) (UniProt P51532); test: as above
SMARCD2 (human) [3] = target: SMARCD2 (human) (UniProt Q92925); test: as above
SMARCC2 (human) [4] = target: SMARCC2 (human) (UniProt Q8TAQ2); test: as above
BCL7A (human) [5] = target: BCL7A (human) (UniProt Q4VC05); test: as above
ARID1B (human) = ARID1B (human) (UniProt Q8NFD5); test: as above
SMARCB1 (human) [6] = target: SMARCB1 (human) (UniProt Q12824); test: as above
SMARCA2 (human) [7] = target: SMARCA2 (human) (UniProt P51531); test: as above
SMARCD1 (human) [8] = target: SMARCD1 (human) (UniProt Q96GM5); test: as above
SMARCC1 (human) [9] = target: SMARCC1 (human) (UniProt Q92922); test: as above
SS18 (human) [10] = target: SS18 (human) (UniProt Q15532); test: as above
SMARCD3 (human) [11] = target: SMARCD3 (human) (UniProt Q6STE5); test: as above
ACTL6A (human) [12] = target: ACTL6A (human) (UniProt O96019); test: as above
ARID1A (human) = ARID1A (human) (UniProt O14497); test: as above
SS18L1 (human) = SS18L1 (human) (UniProt O75177); test: as above
BCL7C (human) [13] = target: BCL7C (human) (UniProt Q8WUZ0); test: as above
ARID2 (human) = ARID2 (human) (UniProt Q68CP9); test: HA-bait purification from HEK-293T nuclear extract, mass spectrometry, peptide count
SMARCE1 (human) [14] = target: SMARCE1 (human) (UniProt Q969G3); test: as above
PHF10 (human) = PHF10 (human) (UniProt Q8WUB8); test: as above
SMARCA4 (human) [15] = target: SMARCA4 (human) (UniProt P51532); test: as above
SMARCD2 (human) [16] = target: SMARCD2 (human) (UniProt Q92925); test: as above
SMARCC2 (human) [17] = target: SMARCC2 (human) (UniProt Q8TAQ2); test: as above
BCL7A (human) [18] = target: BCL7A (human) (UniProt Q4VC05); test: as above
SMARCB1 (human) [19] = target: SMARCB1 (human) (UniProt Q12824); test: as above
SMARCA2 (human) [20] = target: SMARCA2 (human) (UniProt P51531); test: as above
DPF2 (human) = DPF2 (human) (UniProt Q92785); test: as above
SMARCC1 (human) [21] = target: SMARCC1 (human) (UniProt Q92922); test: as above
ACTL6B (human) = ACTL6B (human) (UniProt O94805); test: as above
BCL7B (human) = BCL7B (human) (UniProt Q9BQE9); test: as above
PBRM1 (human) = PBRM1 (human) (UniProt Q86U86); test: as above
SMARCD3 (human) [22] = target: SMARCD3 (human) (UniProt Q6STE5); test: as above
ACTL6A (human) [23] = target: ACTL6A (human) (UniProt O96019); test: as above
BCL7C (human) [24] = target: BCL7C (human) (UniProt Q8WUZ0); test: as above
GLTSCR1L (human) = GLTSCR1L (human) (UniProt Q6AI39); test: as above
SMARCD1 (human) [25] = target: SMARCD1 (human) (UniProt Q96GM5); test: as above
SS18 (human) [26] = target: SS18 (human) (UniProt Q15532); test: as above
GLTSCR1 (human) = GLTSCR1 (human) (UniProt Q9NZM4); test: as above

SMARCD1 (human), sequence (Q96GM5 whole entry): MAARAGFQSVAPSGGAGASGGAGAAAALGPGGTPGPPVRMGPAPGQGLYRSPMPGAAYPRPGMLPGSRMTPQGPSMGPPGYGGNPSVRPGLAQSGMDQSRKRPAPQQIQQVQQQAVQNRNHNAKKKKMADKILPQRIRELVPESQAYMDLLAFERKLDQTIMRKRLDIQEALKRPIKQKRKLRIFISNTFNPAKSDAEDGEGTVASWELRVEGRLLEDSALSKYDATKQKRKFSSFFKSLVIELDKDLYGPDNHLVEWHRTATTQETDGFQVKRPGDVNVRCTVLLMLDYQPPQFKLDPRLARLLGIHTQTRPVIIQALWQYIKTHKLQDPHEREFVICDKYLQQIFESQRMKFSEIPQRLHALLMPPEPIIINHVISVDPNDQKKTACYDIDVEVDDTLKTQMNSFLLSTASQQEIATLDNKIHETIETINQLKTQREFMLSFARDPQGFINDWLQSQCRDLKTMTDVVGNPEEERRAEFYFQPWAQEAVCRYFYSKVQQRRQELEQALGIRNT
SMARCD3 (human), sequence (Q6STE5 2-483 limits assumed): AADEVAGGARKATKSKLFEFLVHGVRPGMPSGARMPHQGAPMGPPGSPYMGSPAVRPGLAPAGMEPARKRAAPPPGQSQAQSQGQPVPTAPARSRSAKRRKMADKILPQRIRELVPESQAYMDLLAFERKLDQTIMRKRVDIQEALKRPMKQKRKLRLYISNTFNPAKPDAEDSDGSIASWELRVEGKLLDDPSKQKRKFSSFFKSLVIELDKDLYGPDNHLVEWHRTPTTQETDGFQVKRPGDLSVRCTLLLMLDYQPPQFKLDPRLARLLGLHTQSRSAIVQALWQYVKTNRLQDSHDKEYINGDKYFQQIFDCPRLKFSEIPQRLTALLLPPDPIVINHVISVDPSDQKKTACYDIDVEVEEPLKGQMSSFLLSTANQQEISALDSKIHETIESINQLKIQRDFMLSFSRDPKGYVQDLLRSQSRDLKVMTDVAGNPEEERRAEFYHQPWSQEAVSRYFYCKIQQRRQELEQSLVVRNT
SMARCC1 (human), sequence (Q92922 other isoform, or with tags, fused parts or gaps limits assumed): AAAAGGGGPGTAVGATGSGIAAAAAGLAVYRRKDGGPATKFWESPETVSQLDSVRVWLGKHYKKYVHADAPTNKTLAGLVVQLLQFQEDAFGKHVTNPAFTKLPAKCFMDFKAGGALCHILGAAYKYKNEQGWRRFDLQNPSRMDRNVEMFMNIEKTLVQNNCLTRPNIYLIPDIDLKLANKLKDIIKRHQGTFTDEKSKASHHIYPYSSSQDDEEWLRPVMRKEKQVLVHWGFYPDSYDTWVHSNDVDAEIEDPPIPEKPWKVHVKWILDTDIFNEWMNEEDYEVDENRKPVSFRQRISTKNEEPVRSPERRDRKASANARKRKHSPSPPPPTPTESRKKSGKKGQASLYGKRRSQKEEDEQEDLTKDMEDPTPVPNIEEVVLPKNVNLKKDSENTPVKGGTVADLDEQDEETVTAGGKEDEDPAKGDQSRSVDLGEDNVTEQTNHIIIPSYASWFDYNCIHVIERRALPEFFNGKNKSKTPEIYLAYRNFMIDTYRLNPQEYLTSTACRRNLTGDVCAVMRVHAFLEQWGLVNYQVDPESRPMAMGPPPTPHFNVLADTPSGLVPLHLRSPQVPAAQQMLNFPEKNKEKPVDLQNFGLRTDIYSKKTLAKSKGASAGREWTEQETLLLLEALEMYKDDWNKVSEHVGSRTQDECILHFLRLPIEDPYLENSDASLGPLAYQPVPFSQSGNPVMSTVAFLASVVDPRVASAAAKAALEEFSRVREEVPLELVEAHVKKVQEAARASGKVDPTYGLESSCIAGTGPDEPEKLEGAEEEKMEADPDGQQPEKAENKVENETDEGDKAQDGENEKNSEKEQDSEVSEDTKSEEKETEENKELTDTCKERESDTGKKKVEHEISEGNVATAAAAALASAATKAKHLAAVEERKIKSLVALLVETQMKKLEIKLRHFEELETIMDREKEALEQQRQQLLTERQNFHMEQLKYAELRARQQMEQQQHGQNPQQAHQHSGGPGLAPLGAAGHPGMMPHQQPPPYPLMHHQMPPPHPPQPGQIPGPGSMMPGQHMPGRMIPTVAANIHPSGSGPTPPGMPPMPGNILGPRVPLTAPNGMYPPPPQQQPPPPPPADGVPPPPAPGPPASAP
BCL7A (human), sequence (Q4VC05 whole entry): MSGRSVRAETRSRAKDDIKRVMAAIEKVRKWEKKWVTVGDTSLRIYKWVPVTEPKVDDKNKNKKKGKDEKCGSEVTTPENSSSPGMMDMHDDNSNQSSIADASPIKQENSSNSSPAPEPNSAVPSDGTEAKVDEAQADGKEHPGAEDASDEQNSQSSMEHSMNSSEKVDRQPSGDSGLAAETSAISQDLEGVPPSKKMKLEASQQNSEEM
SMARCA2 (human), sequence (P51531 whole entry): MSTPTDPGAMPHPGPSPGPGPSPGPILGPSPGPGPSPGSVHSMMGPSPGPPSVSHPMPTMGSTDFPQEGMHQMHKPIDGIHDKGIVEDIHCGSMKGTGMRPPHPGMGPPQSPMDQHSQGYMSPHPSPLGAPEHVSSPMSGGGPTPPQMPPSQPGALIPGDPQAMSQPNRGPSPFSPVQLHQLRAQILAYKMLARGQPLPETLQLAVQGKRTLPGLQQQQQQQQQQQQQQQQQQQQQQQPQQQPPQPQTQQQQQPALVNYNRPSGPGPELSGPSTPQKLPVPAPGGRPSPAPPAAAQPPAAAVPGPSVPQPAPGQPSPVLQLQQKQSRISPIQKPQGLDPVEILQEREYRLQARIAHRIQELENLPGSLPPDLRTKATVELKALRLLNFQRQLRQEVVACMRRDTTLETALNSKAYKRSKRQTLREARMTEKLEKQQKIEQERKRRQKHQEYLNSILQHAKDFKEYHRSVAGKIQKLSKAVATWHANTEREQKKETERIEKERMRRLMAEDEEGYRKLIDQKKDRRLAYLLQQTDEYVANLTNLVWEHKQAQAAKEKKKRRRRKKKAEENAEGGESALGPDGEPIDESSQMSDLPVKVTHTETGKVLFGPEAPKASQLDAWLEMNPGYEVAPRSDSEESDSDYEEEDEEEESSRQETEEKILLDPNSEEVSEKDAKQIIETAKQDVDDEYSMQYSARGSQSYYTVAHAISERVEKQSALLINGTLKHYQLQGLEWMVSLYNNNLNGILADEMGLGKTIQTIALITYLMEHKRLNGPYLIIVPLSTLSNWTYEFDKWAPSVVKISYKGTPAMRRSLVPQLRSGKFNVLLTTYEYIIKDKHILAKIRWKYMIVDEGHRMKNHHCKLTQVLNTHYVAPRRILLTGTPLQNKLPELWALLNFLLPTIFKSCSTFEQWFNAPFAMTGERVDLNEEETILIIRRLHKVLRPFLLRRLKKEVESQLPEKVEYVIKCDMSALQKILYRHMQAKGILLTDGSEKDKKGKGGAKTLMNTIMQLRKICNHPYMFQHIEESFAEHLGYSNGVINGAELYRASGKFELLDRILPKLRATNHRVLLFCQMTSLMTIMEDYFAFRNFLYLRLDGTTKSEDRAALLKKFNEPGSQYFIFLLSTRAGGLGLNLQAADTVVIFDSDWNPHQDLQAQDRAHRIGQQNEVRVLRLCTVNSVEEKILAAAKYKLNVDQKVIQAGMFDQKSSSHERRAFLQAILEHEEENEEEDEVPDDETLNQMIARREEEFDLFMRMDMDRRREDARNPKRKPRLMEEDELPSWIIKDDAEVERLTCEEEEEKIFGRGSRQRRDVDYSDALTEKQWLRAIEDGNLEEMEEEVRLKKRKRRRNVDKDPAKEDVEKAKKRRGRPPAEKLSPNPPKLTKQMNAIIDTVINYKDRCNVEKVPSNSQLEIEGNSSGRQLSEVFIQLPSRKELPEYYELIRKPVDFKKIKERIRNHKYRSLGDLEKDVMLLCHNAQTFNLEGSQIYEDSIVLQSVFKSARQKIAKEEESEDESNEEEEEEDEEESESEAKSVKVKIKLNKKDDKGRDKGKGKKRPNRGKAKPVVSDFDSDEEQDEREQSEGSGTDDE
SMARCB1 (human), sequence (Q12824 whole entry): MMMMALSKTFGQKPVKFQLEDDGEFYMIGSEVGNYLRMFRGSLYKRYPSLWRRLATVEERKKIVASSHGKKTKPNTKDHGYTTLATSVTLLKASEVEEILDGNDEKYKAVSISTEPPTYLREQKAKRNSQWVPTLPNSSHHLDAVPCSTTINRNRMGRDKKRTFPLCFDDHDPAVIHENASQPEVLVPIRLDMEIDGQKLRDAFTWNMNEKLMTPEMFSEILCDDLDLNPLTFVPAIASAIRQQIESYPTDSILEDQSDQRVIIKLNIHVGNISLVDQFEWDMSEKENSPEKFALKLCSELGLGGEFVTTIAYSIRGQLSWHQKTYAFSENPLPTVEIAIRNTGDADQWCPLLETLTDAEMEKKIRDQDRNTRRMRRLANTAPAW
ACTL6A (human), sequence (O96019 2-429 limits assumed): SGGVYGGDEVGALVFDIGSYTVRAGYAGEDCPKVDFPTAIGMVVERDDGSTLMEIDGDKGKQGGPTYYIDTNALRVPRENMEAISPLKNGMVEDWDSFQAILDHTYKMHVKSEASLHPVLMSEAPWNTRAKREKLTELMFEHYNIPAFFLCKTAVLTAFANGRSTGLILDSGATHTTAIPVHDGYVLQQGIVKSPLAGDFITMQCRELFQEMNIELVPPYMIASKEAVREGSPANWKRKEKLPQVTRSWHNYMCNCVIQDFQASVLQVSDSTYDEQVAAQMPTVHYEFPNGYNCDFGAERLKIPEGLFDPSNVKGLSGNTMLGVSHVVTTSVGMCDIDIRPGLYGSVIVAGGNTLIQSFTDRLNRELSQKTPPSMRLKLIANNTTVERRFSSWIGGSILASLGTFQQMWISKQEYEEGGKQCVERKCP
BCL7B (human), sequence (Q9BQE9 whole entry): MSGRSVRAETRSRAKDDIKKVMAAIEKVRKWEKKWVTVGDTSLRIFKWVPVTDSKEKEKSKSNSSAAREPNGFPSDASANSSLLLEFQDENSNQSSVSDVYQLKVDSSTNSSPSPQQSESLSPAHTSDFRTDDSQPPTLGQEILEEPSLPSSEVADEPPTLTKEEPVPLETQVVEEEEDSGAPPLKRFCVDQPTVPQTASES

HA-DPF2 (from UniProt Q92785 1-391) was tested, and the Total (SMARCE1 (human) [1]) was 118 peptides, the Unique (SMARCE1 (human) [1]) was 40 peptides and the Total (SMARCA4 (human) [2]) was 88 peptides. The Unique (SMARCA4 (human) [2]) was 47 peptides, the Total (SMARCD2 (human) [3]) was 51 peptides and the Unique (SMARCD2 (human) [3]) was 32 peptides. For the same substance, the Total (SMARCC2 (human) [4]) was 105 peptides, the Unique (SMARCC2 (human) [4]) was 52 peptides and the Total (BCL7A (human) [5]) was 36 peptides. For the same substance, the Total (ARID1B (human)) was 147 peptides, the Unique (ARID1B (human)) was 85 peptides and the Total (SMARCB1 (human) [6]) was 62 peptides. The Unique (SMARCB1 (human) [6]) was 22 peptides, the Total (SMARCA2 (human) [7]) was 130 peptides and the Unique (SMARCA2 (human) [7]) was 74 peptides. For the same substance, the Total (SMARCD1 (human) [8]) was 83 peptides, the Unique (SMARCD1 (human) [8]) was 37 peptides and the Total (SMARCC1 (human) [9]) was 359 peptides. It also gave a Unique (SMARCC1 (human) [9]) of 87 peptides, a Total (SS18 (human) [10]) of 2 peptides and a Unique (SS18 (human) [10]) of 2 peptides. It also gave a Total (SMARCD3 (human) [11]) of 23 peptides, a Unique (SMARCD3 (human) [11]) of 20 peptides and a Total (ACTL6A (human) [12]) of 61 peptides. It also gave a Unique (ACTL6A (human) [12]) of 23 peptides, a Total (ARID1A (human)) of 311 peptides and a Unique (ARID1A (human)) of 114 peptides. It also gave a Total (SS18L1 (human)) of 3 peptides, a Unique (SS18L1 (human)) of 2 peptides and a Total (BCL7C (human) [13]) of 13 peptides. The Unique (BCL7C (human) [13]) was 7 peptides.

HA-BRD7 (from UniProt Q9NPI1 1-651) showed a Total (ARID2 (human)) of 157 peptides, a Unique (ARID2 (human)) of 67 peptides and a Total (SMARCE1 (human) [14]) of 81 peptides. The Unique (SMARCE1 (human) [14]) was 40 peptides, the Total (PHF10 (human)) was 58 peptides and the Unique (PHF10 (human)) was 31 peptides. The Total (SMARCA4 (human) [15]) was 107 peptides, the Unique (SMARCA4 (human) [15]) was 53 peptides and the Total (SMARCD2 (human) [16]) was 59 peptides. For the same substance, the Unique (SMARCD2 (human) [16]) was 34 peptides, the Total (SMARCC2 (human) [17]) was 136 peptides and the Unique (SMARCC2 (human) [17]) was 64 peptides. It also gave a Total (BCL7A (human) [18]) of 36 peptides, a Unique (BCL7A (human) [18]) of 21 peptides and a Total (SMARCB1 (human) [19]) of 59 peptides. The Unique (SMARCB1 (human) [19]) was 26 peptides, the Total (SMARCA2 (human) [20]) was 146 peptides and the Unique (SMARCA2 (human) [20]) was 85 peptides. It also gave a Total (DPF2 (human)) of 1 peptides, a Unique (DPF2 (human)) of 1 peptides and a Total (SMARCC1 (human) [21]) of 203 peptides. The Unique (SMARCC1 (human) [21]) was 83 peptides, the Total (ACTL6B (human)) was 1 peptides and the Unique (ACTL6B (human)) was 1 peptides. It also gave a Total (BCL7B (human)) of 4 peptides, a Unique (BCL7B (human)) of 3 peptides and a Total (PBRM1 (human)) of 404 peptides. It also gave a Unique (PBRM1 (human)) of 147 peptides, a Total (SMARCD3 (human) [22]) of 23 peptides and a Unique (SMARCD3 (human) [22]) of 20 peptides. It also gave a Total (ACTL6A (human) [23]) of 44 peptides, a Unique (ACTL6A (human) [23]) of 28 peptides and a Total (BCL7C (human) [24]) of 17 peptides. The Unique (BCL7C (human) [24]) was 10 peptides.

Substance HA-BRD9 (from UniProt Q9H8M2 1-597) has a Total (GLTSCR1L (human)) of 16 peptides, a Unique (GLTSCR1L (human)) of 14 peptides and a Total (SMARCA4 (human) [15]) of 31 peptides. It also gave a Unique (SMARCA4 (human) [15]) of 20 peptides, a Total (BCL7A (human) [18]) of 6 peptides and a Unique (BCL7A (human) [18]) of 5 peptides. For the same substance, the Total (SMARCA2 (human) [20]) was 49 peptides, the Unique (SMARCA2 (human) [20]) was 27 peptides and the Total (SMARCD1 (human) [25]) was 33 peptides. For the same substance, the Unique (SMARCD1 (human) [25]) was 22 peptides, the Total (SMARCC1 (human) [21]) was 53 peptides and the Unique (SMARCC1 (human) [21]) was 36 peptides. The Total (SS18 (human) [26]) was 1 peptides, the Unique (SS18 (human) [26]) was 1 peptides and the Total (GLTSCR1 (human)) was 62 peptides. The Unique (GLTSCR1 (human)) was 33 peptides, the Unique (ACTL6A (human) [23]) was 10 peptides and the Total (BCL7C (human) [24]) was 3 peptides. It also gave a Unique (BCL7C (human) [24]) of 3 peptides.
